Data set [1] deals with the molecule itself. The data set can be described thus: negative-stain EM single-particle reconstruction.
The data set “SEC” concerns the molecule itself. Description: SEC. Background: In gel filtration, larger molecules generally elute earlier.

B1: Mycobacterium tuberculosis Mfd (transcription-repair coupling factor) (natural protein)
chain: MTAPGPACSDTPIAGLVELALSAPTFQQLMQRAGGRPDELTLIAPASARLLVASALARQGPLLVVTATGREADDLAAELRGVFGDAVALLPSWETLPHERLSPGVDTVGTRLMALRRLAHPDDAQLGPPLGVVVTSVRSLLQPMTPQLGMMEPLTLTVGDESPFDGVVARLVELAYTRVDMVGRRGEFAVRGGILDIFAPTAEHPVRVEFWGDEITEMRMFSVADQRSIPEIDIHTLVAFACRELLLSEDVRARAAQLAARHPAAESTVTGSASDMLAKLAEGIAVDGMEAVLPVLWSDGHALLTDQLPDGTPVLVCDPEKVRTRAADLIRTGREFLEASWSVAALGTAENQAPVDVEQLGGSGFVELDQVRAAAARTGHPWWTLSQLSDESAIELDVRAAPSARGHQRDIDEIFAMLRAHIATGGYAALVAPGTGTAHRVVERLSESDTPAGMLDPGQAPKPGVVGVLQGPLRDGVIIPGANLVVITETDLTGSRVSAAEGKRLAAKRRNIVDPLALTAGDLVVHDQHGIGRFVEMVERTVGGARREYLVLEYASAKRGGGAKNTDKLYVPMDSLDQLSRYVGGQAPALSRLGGSDWANTKTKARRAVREIAGELVSLYAKRQASPGHAFSPDTPWQAELEDAFGFTETVDQLTAIEEVKADMEKPIPMDRVICGDVGYGKTEIAVRAAFKAVQDGKQVAVLVPTTLLADQHLQTFGERMSGFPVTIKGLSRFTDAAESRAVIDGLADGSVDIVIGTHRLLQTGVRWKDLGLVVVDEEQRFGVEHKEHIKSLRTHVDVLTMSATPIPRTLEMSLAGIREMSTILTPPEERYPVLTYVGPHDDKQIAAALRRELLRDGQAFYVHNRVSSIDAAAARVRELVPEARVVVAHGQMPEDLLETTVQRFWNREHDILVCTTIVETGLDISNANTLIVERADTFGLSQLHQLRGRVGRSRERGYAYFLYPPQVPLTETAYDRLATIAQNNELGAGMAVALKDLEIRGAGNVLGIEQSGHVAGVGFDLYVRLVGEALETYRDAYRAAADGQTVRTAEEPKDVRIDLPVDAHLPPDYIASDRLRLEGYRRLAAASSDREVAAVVDELTDRYGALPEPARRLAAVARLRLLCRGSGITDVTAASAATVRLSPLTLPDSAQVRLKRMYPGAHYRATTATVQVPIPRAGGLGAPRIRDVELVQMVADLITALAGKPRQHIGITNPSPPGEDGRGRNTTIKERQP
On to B1, for which the “stoichiometry N” value is 12 in data set [1] and 6 in the data set “SEC”.

B2: Mycobacterium smegmatis Mfd (natural protein)
chain: MTAPGHTSVQTPIAGLVELALSDPSLQDVIRRAADRPADLALVGPASARVLVAAALAQNGPLLVVAATGREADELTAELRGVFGDSVALFPSWETLPHERLSPGVETVGARLMLLRRLARPDDETLGAPLRVVVTTTRSLLQPMAPDLVDIEPVTLSVGAEMEFEDVVARLVDLSYTRVDMVGKRGEFAVRGGILDVFPPTAEHPVRVEFWGDEISEMRAFAIADQRSIPEVPVQTVVAVPCRELLMTDDVRERAAALAAEHPTTENTVPGTVPDMLAKLAEGIPVDGMEALLPLLHPIEPTTLTRHLPEGAPVLVCDPEKVRTRAADLIKTGREFLEASWSTAAVGGDAPIDLEALGASGFVTFEEAREAAREGGHPWWTLSQLSDESAVELDIRSAPSARGSQHNLEEIFAMLRAHVATGGYAAVVTPGIGTAHRVVEQLGEADTAATILEPGTAPKAGVVGVLKGPLCSGVVLPGANLVIITETDLTGNRVTANEGRKLAAKRRNVVDPLALTAGDLVVHDQHGIGKFVEMTERVVGGARREYLVLEYASSKRGGGTDKLYVPMDSLDQLSRYVGGEAPSLSRLGGSDWANTKTKARRAVREIASELVALYAKRQSAPGHAFGPDTPWQAEMEDAFGFTETIDQLTAIQEVKSDMEKPVPMDRVICGDVGYGKTEIAVRAAFKAVQDGKQVAVLVPTTLLADQHLQTFTNRMAGFPVTVKGLSRFTDPAESRAVIEGLKDGSVDVVIGTHRLLQTGVTWKDLGLIIVDEEQRFGVEHKEHIKSMRTHVDVLTMSATPIPRTLEMSLAGIREMSTILTPPEERYPVLTYVGPHDDKQVAAALRRELLRDGQAFYIHNRVRTIDEAAARVRQLVPEARVVVAHGQMNEETLEKTVEGFWNREYDILVCTTIVETGLDISNANTLIVERADTFGLSQLHQLRGRVGRSRERGYAYFLYPPNKPLTETAYDRLATIAQNNELGAGMAVAMKDLEIRGAGNVLGAEQSGHVAGVGFDLYVRLVGEAVEAYRAAADGKTVATPQEQKDVRIDLPVDAHLPPEYIGSDRLRLEAYRRLAAAADDDAVASVVDELIDRYGPLPEPAQRLVAVARLRLLCREFGITEIGAVSASTVRLSPMVLPDSAQLRLKRMYPGGHYRATTSTVQVPLPRAGEGVGAPRIRDLELVQWVAGLVLVLNGKGQGDVDMSKFSNPAGEAKR
Regarding B2, in “SEC”, the “stoichiometry N” value was determined as 6.

A word on the stoichiometry N: it is a count of units in the complex or per binding partner.

The record behind these values is paper doi:10.1101/728246 (bioRxiv, 2019).
